Reference: patent publication US11008402 (dated 2021)
Where “and” joins values, the source holds several entries; their conditions need not be identical. Equal values may be shown once. Read-outs that look alike come from different tables or passages of the source.

Columns and labels:
[1] = target: HER3 (cell surface) (human); test: FACS, A375
[2] = target: HER3-Fc ECD (human); test: ELISA
[3] = target: HER3-His ECD (human); test: ELISA
[4] = target: HER3-His ECD (human); test: ELISA; remark: listed apart in the source
[5] = target: HER3-Fc ECD (human); test: ELISA; remark: listed apart in the source
[6] = target: HER3 (cell surface) (human); test: FACS, MCF-7
[7] = target: HER3 (cell surface) (human); test: FACS, MCF-7 (Example 22)
[8] = target: HER3 (cell surface) (human); test: FACS, MCF-7; remark: listed apart in the source
[9] = target: HER3-His ECD (human); test: ELISA; remark: listed apart in the source
[10] = target: HER3 (cell surface) (human); test: FACS, SKBR-3 (EGFR and HER3 positive)
[11] = target: CD3 (Jurkat cells) (human, UniProt P07766); test: FACS, Jurkat
Sequence of CD3 (Jurkat cells) (P07766 23-207): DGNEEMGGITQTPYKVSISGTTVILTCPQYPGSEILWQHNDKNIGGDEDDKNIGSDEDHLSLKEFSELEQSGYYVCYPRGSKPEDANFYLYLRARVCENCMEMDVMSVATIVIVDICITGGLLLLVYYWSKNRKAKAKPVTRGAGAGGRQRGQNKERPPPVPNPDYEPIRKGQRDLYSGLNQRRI

[12] = target: EGFR ECD (human, UniProt P00533); test: ELISA
[13] = target: EGFR (cell surface) (human, UniProt P00533); test: FACS, FaDu (EGFR and HER3 positive)

B1: scFv3-43-Fc-scTRAIL, HER3 arm (antibody)
chain: QVQLQQSGPGLVKPSQTLSLTCAISGDSVSSNRAAWNWIRQSPSRGLEWLGRTYYRSKWYNDYAQSLKSRITINPDTPKNQFSLQLNSVTPEDTAVYYCARDGQLGLDALDIWGQGTMVTVSSGGGGSGGGGSGGGGSQAGLTQPPAVSVAPGQTASITCGRDNIGSRSVHWYQQKPGQAPVLVVYDDSDRPAGIPERFSGSNYENTATLTISRVEAGDEADYYCQVWGITSDHVVFGGGTKLTVLG
- EC50 [1]: 1.19 nM
- EC50 [2]: 0.33 nM

B2: scDb 4D5x3-43-Fc, HER3 arm (antibody, V domains shown)
VH: QVQLQQSGPGLVKPSQTLSLTCAISGDSVSSNRAAWNWIRQSPSRGLEWLGRTYYRSKWYNDYAQSLKSRITINPDTPKNQFSLQLNSVTPEDTAVYYCARDGQLGLDALDIWGQGTMVTVSS
VL: QAGLTQPPAVSVAPGQTASITCGRDNIGSRSVHWYQQKPGQAPVLVVYDDSDRPAGIPERFSGSNYENTATLTISRVEAGDEADYYCQVWGITSDHVVFGGGTKLTVLG
- EC50 [3]: 1.9 nM

B3: scDb hu225x3-43-Fc, HER3 arm (antibody, V domains shown)
VH: B2 VH
VL: B2 VL
- EC50 [4]: 0.24 nM

B4: scDb 3-43xCD3-scFv 3-43, HER3 arms (antibody, V domains shown)
VH: B2 VH
VL: B2 VL
- EC50 [5]: 0.81 nM
- EC50 [6]: 0.0316 nM and 0.0314 nM

B5: scDb4D5x3-43-LL, HER3 arm (antibody, V domains shown)
VH: B2 VH
VL: B2 VL
- EC50 [5]: 0.93 nM

B6: scDb 3-43xCD3, HER3 arm (antibody, V domains shown)
VH: B2 VH
VL: B2 VL
- EC50 [5]: 3.3 nM and 4.87 nM
- EC50 [6]: 1.1 nM
- EC50 [7]: 1.1 nM

B7: Db3-43xhu225-Ig, HER3 arm (antibody, V domains shown)
VH: B2 VH
VL: B2 VL
- EC50 [8]: 0.054 nM
- EC50 [9]: 0.26 nM
- EC50 [10]: 0.047 nM

B8: scFv3-43-scDb3-43xhuU3-scFv3-43, HER3 arms (antibody, V domains shown)
VH: B2 VH
VL: B2 VL
- EC50 [6]: 0.0173 nM

B9: scDbhu225x3-43-Fc (GGGGS), HER3 arm (antibody, V domains shown)
VH: B2 VH
VL: B2 VL
- EC50 [3]: 0.2 nM

B10: scDb 2-35x3-43-Fc, HER3 arm (antibody, V domains shown)
VH: B2 VH
VL: B2 VL
- EC50 [3]: 0.24 nM

B11: scDb 3-43xCD3, CD3 arm (antibody)
chain: METDTLLLWVLLLWVPGSTGQVQLQQSGPGLVKPSQTLSLTCAISGDSVSSNRAAWNWIRQSPSRGLEWLGRTYYRSKWYNDYAQSLKSRITINPDTPKNQFSLQLNSVTPEDTAVYYCARDGQLGLDALDIWGQGTMVTVSSGGGGSDIQMTQSPSSLSASVGDRVTITCRASQDIRNYLNWYQQKPGKAPKLLIYYTSRLHSGVPSRFSGSGSGTDFTFTISSLQPEDIATYYCQQGNTLPWTFGQGTKLEIKRGGGGSGGGGSGGGGSQVQLVQSGAEVKKPGSSVKVSCKASGGTFSGYTMNWVRQAPGQGLEWMGLINPYKGVSTYNGKFKDRVTITADKSTSTAYMELSSLRSEDTAVYYCARSGYYGDSDWYFDVWGQGTLVTVSSGGGGSQAGLTQPPAVSVAPGQTASITCGRDNIGSRSVHWYQQKPGQAPVLVVYDDSDRPAGIPERFSGSNYENTATLTISRVEAGDEADYYCQVWGITSDHVVFGGGTKLTVLAAAHHHHHH
- EC50 [11]: 2.4 nM and 3.1 nM

B12: scFv3-43-scDb3-43xhuU3-scFv3-43, CD3 arm (antibody)
chain: METDTLLLWVLLLWVPGSTGQVQLQQSGPGLVKPSQTLSLTCAISGDSVSSNRAAWNWIRQSPSRGLEWLGRTYYRSKWYNDYAQSLKSRITINPDTPKNQFSLQLNSVTPEDTAVYYCARDGQLGLDALDIWGQGTMVTVSSGGGGSDIQMTQSPSSLSASVGDRVTITCRASQDIRNYLNWYQQKPGKAPKLLIYYTSRLHSGVPSRFSGSGSGTDFTFTISSLQPEDIATYYCQQGNTLPWTFGQGTKLEIKRGGGGSGGGGSGGGGSQVQLVQSGAEVKKPGSSVKVSCKASGGTFSGYTMNWVRQAPGQGLEWMGLINPYKGVSTYNGKFKDRVTITADKSTSTAYMELSSLRSEDTAVYYCARSGYYGDSDWYFDVWGQGTLVTVSSGGGGSQAGLTQPPAVSVAPGQTASITCGRDNIGSRSVHWYQQKPGQAPVLVVYDDSDRPAGIPERFSGSNYENTATLTISRVEAGDEADYYCQVWGITSDHVVFGGGTKLTVLAAAGGSGGGGSGGGTQVQLQQSGPGLVKPSQTLSLTCAISGDSVSSNRAAWNWIRQSPSRGLEWLGRTYYRSKWYNDYAQSLKSRITINPDTPKNQFSLQLNSVTPEDTAVYYCARDGQLGLDALDIWGQGTMVTVSSGGGGSGGGGSGGGGSQAGLTQPPAVSVAPGQTASITCGRDNIGSRSVHWYQQKPGQAPVLVVYDDSDRPAGIPERFSGSNYENTATLTISRVEAGDEADYYCQVWGITSDHVVFGGGTKLTVLGSL
- EC50 [11]: 5.2 nM

B13: Db3-43xhu225-Ig, EGFR arm (antibody)
chain 1: EVQLVESGGGLVQPGGSLRLSCAASGFSLTNYGVHWVRQAPGKGLEWLGVIWSGGNTDYNTPFTSRFTISRDNSKNTLYLQMNSLRAEDTAVYYCARALTYYDYEFAYWGQGTTVTVSSGGGGSQAGLTQPPAVSVAPGQTASITCGRDNIGSRSVHWYQQKPGQAPVLVVYDDSDRPAGIPERFSGSNYENTATLTISRVEAGDEADYYCQVWGITSDHVVFGGGTKLTVLASTKGPSVFPLAPSSKSTSGGTAALGCLVKDYFPEPVTVSWNSGALTSGVHTFPAVLQSSGLYSLSSVVTVPSSSLGTQTYICNVNHKPSNTKVDKKVEPKSCDKTHTCPPCPAPPVAGPSVFLFPPKPKDTLMISRTPEVTCVVVDVSHEDPEVKFNWYVDGVEVHNAKTKPREEQYNSTYRVVSVLTVLHQDWLNGKEYKCKVSNKGLPSSIEKTISKAKGQPREPQVYTLPPSRDELTKNQVSLTCLVKGFYPSDIAVEWESNGQPENNYKTTPPVLDSDGSFFLYSKLTVDKSRWQQGNVFSCSVMHEALHNHYTQKSLSLSPGK
chain 2: QVQLQQSGPGLVKPSQTLSLTCAISGDSVSSNRAAWNWIRQSPSRGLEWLGRTYYRSKWYNDYAQSLKSRITINPDTPKNQFSLQLNSVTPEDTAVYYCARDGQLGLDALDIWGQGTMVTVSSGGGGSDIQLTQSPSFLSASVGDRVTITCRASQSIGTNIHWYQQKPGKAPKLLIKYASESISGVPSRFSGSGSGTEFTLTISSLQPEDFATYYCQQNNNWPTTFGAGTKLEIKRTVAAPSVFIFPPSDEQLKSGTASVVCLLNNFYPREAKVQWKVDNALQSGNSQESVTEQDSKDSTYSLSSTLTLSKADYEKHKVYACEVTHQGLSSPVTKSFNRGEC
- EC50 [12]: 0.19 nM
- EC50 [13]: 0.14 nM
